Test [1] deals with T1, LY75 1077-1093 (human).
T1 construct: Region put together from overlapping 8mers on the array
T1 peptide: FTSCSERHFVSLCQKYS
Put plainly: peptide microarray; region identified by signal above the cut off. On the procedure:
(§1) The peptide microarray analysis was performed by LC Sciences, Houston Tex., in brief the method comprised the following steps: —Contiguous 8mer peptides of LY75 protein having […] spanning residues 216 to 1666 of the full length LY75 protein were synthesized and immobilized on a microarray chip. The chip comprised three panels such that the experiment was performed in triplicate. […] The binding assay was performed under the following conditions:—
(§2) The microarray comprising the contiguous peptides in triplicate was washed with 1 mL of binding buffer at 4° C. for 20 min. […] The array was again washed with 0.5 mL of washing buffer at 4° C. for 30 min then incubated with 25 ng/mL anti-human IgG Alexa 647 conjugate in binding buffer (pH 7.0) at 4° C. for 1 hr. The array was again washed with 0.5 mL of washing buffer at 4° C. for 30 min.

Test [2] concerns the target T2, LY75 883-901 (human).
T2 construct: Region put together from overlapping 8mers on the array
T2 peptide: DDHFTYSRYPWHRFPVTFG
The test is described as above. On the procedure: as §1, §2

B1: LY75_A1 monoclonal antibody (antibody, human IgG1, kappa, V domains shown)
VH: EVQLVESGGGLVKPGGSLRLSCAASGFTYSNAWMSWVRQAPGKGLEWVGRIKSKTDGGTTDYAAPVQGRFTISRDDSKNTLYLQMNSLKTEDTAVYYCTIFGVVSFDYWGQGTLVTVSS
VL: DVQMTQSPSSLSASVGDRVTITCRASQSISDYLSWYQQRPGKAPNLLIYAASNLKTGVPSRFSGSGSGTDFTLTISTLQPEDFATYYCQQSYRSPWTFGQGTKVEIKR
notes: also called LY75A1 antibody; antibody LY75_A1
Regarding B1, the binding result in test [1] and in test [2] was “binds” each time.
